Measurements taken from patent US20220298231A1 (AC IMMUNE, published 2022).
Read-outs that look alike come from different tables or passages of the source. Where no end group is shown, it is not given here. The star is where a group is joined. Biotin = O=C1N[C@H]2[C@H](CS[C@H]2CCCCC(=O)*)N1; Ahx = NCCCCCC(=O)O

T1: 37-51aa
T1 construct: also called alpha-synuclein peptide 37-51
T1 peptide: {Biotin-Ahx}-VLYVGSKTKEGVVHG

T2: 91-105aa
T2 construct: also called alpha-synuclein peptide 91-105
T2 peptide: {Biotin-Ahx}-ATGFVKKDQLGKNEE

T3: 82-96aa
T3 construct: also called alpha-synuclein peptide 82-96
T3 peptide: {Biotin-Ahx}-VEGAGSIAAATGFVK

T4: 1-15aa
T4 construct: also called alpha-synuclein peptide 1-15
T4 peptide: {Biotin-Ahx}-MDVFMKGLSKAKEGV

T5: 100-114aa
T5 peptide: {Biotin-Ahx}-LGKNEEGAPQEGILE

T6: 109-123aa
T6 peptide: {Biotin-Ahx}-QEGILEDMPVDPDNE


Experiments:
[1] = molecular target: T1, 37-51aa; test: indirect ELISA on biotinylated 15-mer peptide (streptavidin plate), supernatant 1/100
Description: (§1) Epitope mapping for the antibodies derived from stable hybridoma clones was determined using an indirect ELISA on a library of 15-mer peptides covering the entire sequence of human alpha-synuclein from 1 to 140aa. […] Results are expressed as optical density (O.D.). Each bar represents data for an individual antibody.
(§2) Serum-free supernatants were harvested from stable hybridomas. The supernatants containing antibodies of interest were then screened by an indirect ELISA assay to determine epitopes. Epitopes were first determined using a library of 15-mer peptides covering the entire sequence of human alpha-synuclein protein, spanning amino acids (aa) 1-140 with 9aa offset and 6aa overlap. […] Briefly, streptavidin-coated ELISA plates were blocked overnight at 4° C. […] Plates were washed with PBS/0.05% Tween® 20 and then incubated with the hybridoma supernatants at 1/100 dilution for 1 hour at 25° C. […] After final wash, plates were incubated 2 hours at 25° C. with alkaline phosphatase substrate (p-nitrophenyl phosphate disodium hexahydrate; pNPP, S0942, Sigma) and read the absorbance optical density (O.D.) signal at 405 nm using an ELISA plate reader (Tecan, Switzerland).

[2] = molecular target: 28-42aa; test: as above
Description: as §1, §2

[3] = molecular target: T2, 91-105aa; test: 15-mer peptide ELISA
Description: as §1, §2

[4] = molecular target: T3, 82-96aa; test: 15-mer peptide ELISA
Description: as §1, §2

[5] = molecular target: T4, 1-15aa; test: 15-mer peptide ELISA
Description: as §1, §2

[6] = molecular target: T4, 1-15aa; test: indirect ELISA on biotinylated 15-mer peptide (streptavidin plate), supernatant 1/100
Description: as §1, §2

[7] = molecular target: T2, 91-105aa; test: as above
Description: as §1, §2

[8] = molecular target: T1, 37-51aa; test: 15-mer peptide ELISA
Description: as §1, §2

[9] = molecular target: T2, 91-105aa; test: indirect ELISA on biotinylated 15-mer peptide (streptavidin plate), supernatant 1/100
Description: as §1, §2

[10] = molecular target: T5, 100-114aa; test: 15-mer peptide ELISA;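 note: indirect ELISA of hybridoma supernatant antibodies (1/100, 1 h) binding immobilized 15-mer peptides spanning human alpha-synuclein 1-140 on streptavidin plates, read as optical density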
Description: as §1, §2

[11] = molecular target: T6, 109-123aa; test: 15-mer peptide ELISA;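 note: indirect ELISA of hybridoma supernatant antibodies (1/100, 1 h) binding immobilized 15-mer peptides spanning human alpha-synuclein 1-140 on streptavidin plates, read as optical density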
Description: as §1, §2

[12] = molecular target: T3, 82-96aa; test: 15-mer peptide ELISA
Description: as §1, §2

Binder	binding result [1]	binding result [2]	binding result [3]	binding result [4]	binding result [5]	binding result [6]	binding result [7]	binding result [8]	binding result [9]	binding result [10]	binding result [11]	binding result [12]
ACI-7087-4119E10-Ab2 (antibody, V domains shown, mouse hybridoma mAb; also called 4119E10D12) VH: QVQLQQSGAELVRPGASVTLSCKASGYTFSDYEMNWVKQTPVHGLEWIGAIDPETGGTAYNQKFKGKAILTSDKSSSTAYMELRSLTSEDSAVYYCTRFLLIDFDYWGQGTTLTVSS VL: DVLMTQTPLSLPVSLGDQASISCRSSQSIVHSNGNTYLEWYLKKAGQSPKVLIYKVSNRFSGVPDRFSGSGSGTDFTLKISRVEAEDLGVYYCFQGSHVPYTFGGGTELEIK	binds	binds	no binding (tested: supernatant 1/100)	no binding (tested: supernatant 1/100)	no binding (tested: supernatant 1/100)	–	–	–	–	–	–	–
ACI-7088-4305H7-Ab1 (antibody, V domains shown, mouse hybridoma mAb; also called 4305H7A4) VH: EVQLQQSGAELVRPGASVKLSCTASGFNIKDDYMHWVKQRPEQGLEWIGWIDPENGDTEYASKFQGKATMIADTSSNTAYLQLSSLTSEDTAVYYCKTWGTTQALFPYWGQGTLVTVSS VL: DIVMTQSQKFMSTSVGDRVSITCKASQNVGTAVGWYQQKAGQSPKLLIHSASNRYTGVPDRFTGSGSGTDFTLTINNMQSEDLADYFCQQYRSYPLTFGAGTKLELK	–	–	–	no binding (tested: supernatant 1/100)	–	binds	binds	no binding (tested: supernatant 1/100)	–	–	–	–

Next, values leading:

binding result [1]	binding result [2]	binding result [3]	binding result [4]	binding result [5]	binding result [6]	binding result [7]	binding result [8]	binding result [9]	binding result [10]	binding result [11]	binding result [12]	Binder
–	–	–	–	–	–	–	–	binds	no binding (tested: supernatant 1/100)	no binding (tested: supernatant 1/100)	no binding (tested: supernatant 1/100)	ACI-8033-4F3-Ab1 (antibody, V domains shown, mouse hybridoma mAb; also called 917.4F3F4G6) VH: EVQLQQSGPELVKPGASVKISCKASGYTFTDYYMNWVKQSHGKSLEWIGDINPNTGTNSYNQKFKGRASLTVDKFSSAAYMELRSLTSEDSAVYYCARTGYGDPISSYYYALDYWGQGTSVTVSS VL: DIVMSQSPSSLAVSAGEKVTMSCKSSQSLLNSRTRKNYLAWYQQKPGQSPKLLIYWASTRESGVPDRFTGSGSGTDFTLTISSVQAEDLAVYYCKQSYNLWTFGGGTKLEIK
–	–	–	–	–	–	–	–	binds	no binding (tested: supernatant 1/100)	no binding (tested: supernatant 1/100)	no binding (tested: supernatant 1/100)	ACI-8033-17F5-Ab1 (antibody, V domains shown, mouse hybridoma mAb; also called 917.17F5F5G9) VH: EVQLQQSGPELVKPGASVKISCKASGYTFTDYFMNWVKQSHGKSLEWIGDINPNIDVTNYNQKFKGKATLTVDKSSSTAYMELRSLTSEDSAVYYCARGRDYAMDFWGQGTSVTVSS VL: DIVMSQSPSSLAVSAGEKVTMSCKSSQSLLNSRTRKNYLAWYQQKPGQSPKLLIYWASTRESGVPDRFTGSGSGTDFTLTISSVQAEDLAVYYCKQSYDLWTFGGGTKLEIK
–	–	–	no binding (tested: supernatant 1/100)	no binding (tested: supernatant 1/100)	–	binds	no binding (tested: supernatant 1/100)	–	–	–	–	ACI-7088-4303H6-Ab1 (antibody, V domains shown, mouse hybridoma mAb; tied by the hybridoma code 4303H6D7; also called 4303H6D7) VH: EVQLQQSGAELVRPGASVKLSCTASGFNIQDDYMHWVKQRPEQGLEWIGWIDPENGDTEYASKFQGKATLTADTSSNTAYLQLSRLTSEDTAVYYCTTAGSGVQLFDYWGQGTTLTVSA VL: DILMTQSQKFMSTSVGDRVSVTCKASQNVGTNVAWYQQKPGQSPKPLISSASSRYSGVPDRFTGSGSGTDFTLTISNVQSEDLADYFCQQYNRYPLTFGAGTKLELK
binds	binds	no binding (tested: supernatant 1/100)	no binding (tested: supernatant 1/100)	no binding (tested: supernatant 1/100)	–	–	–	–	–	–	–	ACI-7088-4301D5-Ab2 (antibody, V domains shown, mouse hybridoma mAb; also called 4301D5B10) VH: QVQLQQSGPELVRPGASVKISCKASGYRFTSYYIHWVKQRPGQGLEWIGWIYPGSDNTKHNDKFKGKATLTADTSSSTAYMQLSSLTSEDSAVYFCARDYDVGFGYWGQGTLVTVSS VL: not shown
